Laboratory results reported in patent US20240218342A1, “SITE-SPECIFIC GLYCAN REMODELING OF LYSOSOMAL ENZYMES AND APPLICATIONS THEREOF” (priority 2021, published 2024).

What was measured:
[1] = biological target: GlcNAc-RNase B (67) (bovine) (UniProt P61823)
Bovine RNase B (bovine) = Bovine RNase B (bovine) (UniProt P61823)
Chain of Bovine RNase B (bovine) (P61823 27-150): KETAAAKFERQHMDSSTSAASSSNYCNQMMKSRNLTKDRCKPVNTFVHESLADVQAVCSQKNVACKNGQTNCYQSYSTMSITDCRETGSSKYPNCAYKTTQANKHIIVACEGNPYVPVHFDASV

Chain of GlcNAc-RNase B (67) (bovine) (P61823 27-150): as above

transglycosylation of oxazoline 8 to GlcNAc-RNase B, yield of glycoprotein 68 [1]: 71% | deglycosylation of RNase B, isolated yield of GlcNAc-RNase B 67 (Bovine RNase B (bovine)): 86%
B1: Wild-type Endo-A (enzyme)
chain: STYNGPLSSHWFPEELAQWEPDSDPDAPFNRSHVPLEPGRVANRVNANADKDAHLVSLSALNRHTSGVPSQGAPVFYENTFSYWHYTDLMVYWAGSAGEGIIVPPSADVIDASHRNGVPILGNVFFPPTVYGGQLEWLEQMLEQEEDGSFPLADKLLEVADYYGFDGWFINQETEGADEGTAEAMQAFLVYLQEQKPEGMHIMWYDSMIDTGAIAWQNHLTDRNKMYLQNGSTRVADSMFLNFWWRDQRQSNELAQALGRSPYDLYAGVDVEARGTSTPVQWEGLFPEGEKAHTSLGLYRPDWAFQSSETMEAFYEKELQFWVGSTGNPAETDGQSNWPGMAHWFPAKSTATSVPFVTHFNTGSGAQFSAEGKTVSEQEWNNRSLQDVLPTWRWIQHGGDLEATFSWEEAFEGGSSLQWHGSLAEGEHAQIELYQTELPISEGTSLTWTFKSEHGNDLNVGFRLDGEEDFRYVEGEQRESINGWTQWTLPLDAFAGQTITGLAFAAEGNETGLAEFYIGQLAVGADSEKPAAPNVNVRQYDPDPSGIQLVWEKQSNVHHYRVYKETKHGKELIGTSAGDRIYLEGLVEESKQNDVRLHIEALSETFVPSDARMIDIKSGSF
